# Data as given in patent US20230018405A1.
# Ends that are not written are not given here. EGFP = GFP fused N-terminally (GFP-linker-3.2iPA), EGFP per filing
# How the values were obtained:
# rat Cav3.2 (rat) = rat Cav3.2 (rat) (UniProt Q9EQ60); assay: cell-based or functional assay
# [1] = biological target: human wide-type Cav3.2 (human) (UniProt O95180); assay: cell-based or functional assay
# Chain of UniProt O95180 (O95180 whole entry): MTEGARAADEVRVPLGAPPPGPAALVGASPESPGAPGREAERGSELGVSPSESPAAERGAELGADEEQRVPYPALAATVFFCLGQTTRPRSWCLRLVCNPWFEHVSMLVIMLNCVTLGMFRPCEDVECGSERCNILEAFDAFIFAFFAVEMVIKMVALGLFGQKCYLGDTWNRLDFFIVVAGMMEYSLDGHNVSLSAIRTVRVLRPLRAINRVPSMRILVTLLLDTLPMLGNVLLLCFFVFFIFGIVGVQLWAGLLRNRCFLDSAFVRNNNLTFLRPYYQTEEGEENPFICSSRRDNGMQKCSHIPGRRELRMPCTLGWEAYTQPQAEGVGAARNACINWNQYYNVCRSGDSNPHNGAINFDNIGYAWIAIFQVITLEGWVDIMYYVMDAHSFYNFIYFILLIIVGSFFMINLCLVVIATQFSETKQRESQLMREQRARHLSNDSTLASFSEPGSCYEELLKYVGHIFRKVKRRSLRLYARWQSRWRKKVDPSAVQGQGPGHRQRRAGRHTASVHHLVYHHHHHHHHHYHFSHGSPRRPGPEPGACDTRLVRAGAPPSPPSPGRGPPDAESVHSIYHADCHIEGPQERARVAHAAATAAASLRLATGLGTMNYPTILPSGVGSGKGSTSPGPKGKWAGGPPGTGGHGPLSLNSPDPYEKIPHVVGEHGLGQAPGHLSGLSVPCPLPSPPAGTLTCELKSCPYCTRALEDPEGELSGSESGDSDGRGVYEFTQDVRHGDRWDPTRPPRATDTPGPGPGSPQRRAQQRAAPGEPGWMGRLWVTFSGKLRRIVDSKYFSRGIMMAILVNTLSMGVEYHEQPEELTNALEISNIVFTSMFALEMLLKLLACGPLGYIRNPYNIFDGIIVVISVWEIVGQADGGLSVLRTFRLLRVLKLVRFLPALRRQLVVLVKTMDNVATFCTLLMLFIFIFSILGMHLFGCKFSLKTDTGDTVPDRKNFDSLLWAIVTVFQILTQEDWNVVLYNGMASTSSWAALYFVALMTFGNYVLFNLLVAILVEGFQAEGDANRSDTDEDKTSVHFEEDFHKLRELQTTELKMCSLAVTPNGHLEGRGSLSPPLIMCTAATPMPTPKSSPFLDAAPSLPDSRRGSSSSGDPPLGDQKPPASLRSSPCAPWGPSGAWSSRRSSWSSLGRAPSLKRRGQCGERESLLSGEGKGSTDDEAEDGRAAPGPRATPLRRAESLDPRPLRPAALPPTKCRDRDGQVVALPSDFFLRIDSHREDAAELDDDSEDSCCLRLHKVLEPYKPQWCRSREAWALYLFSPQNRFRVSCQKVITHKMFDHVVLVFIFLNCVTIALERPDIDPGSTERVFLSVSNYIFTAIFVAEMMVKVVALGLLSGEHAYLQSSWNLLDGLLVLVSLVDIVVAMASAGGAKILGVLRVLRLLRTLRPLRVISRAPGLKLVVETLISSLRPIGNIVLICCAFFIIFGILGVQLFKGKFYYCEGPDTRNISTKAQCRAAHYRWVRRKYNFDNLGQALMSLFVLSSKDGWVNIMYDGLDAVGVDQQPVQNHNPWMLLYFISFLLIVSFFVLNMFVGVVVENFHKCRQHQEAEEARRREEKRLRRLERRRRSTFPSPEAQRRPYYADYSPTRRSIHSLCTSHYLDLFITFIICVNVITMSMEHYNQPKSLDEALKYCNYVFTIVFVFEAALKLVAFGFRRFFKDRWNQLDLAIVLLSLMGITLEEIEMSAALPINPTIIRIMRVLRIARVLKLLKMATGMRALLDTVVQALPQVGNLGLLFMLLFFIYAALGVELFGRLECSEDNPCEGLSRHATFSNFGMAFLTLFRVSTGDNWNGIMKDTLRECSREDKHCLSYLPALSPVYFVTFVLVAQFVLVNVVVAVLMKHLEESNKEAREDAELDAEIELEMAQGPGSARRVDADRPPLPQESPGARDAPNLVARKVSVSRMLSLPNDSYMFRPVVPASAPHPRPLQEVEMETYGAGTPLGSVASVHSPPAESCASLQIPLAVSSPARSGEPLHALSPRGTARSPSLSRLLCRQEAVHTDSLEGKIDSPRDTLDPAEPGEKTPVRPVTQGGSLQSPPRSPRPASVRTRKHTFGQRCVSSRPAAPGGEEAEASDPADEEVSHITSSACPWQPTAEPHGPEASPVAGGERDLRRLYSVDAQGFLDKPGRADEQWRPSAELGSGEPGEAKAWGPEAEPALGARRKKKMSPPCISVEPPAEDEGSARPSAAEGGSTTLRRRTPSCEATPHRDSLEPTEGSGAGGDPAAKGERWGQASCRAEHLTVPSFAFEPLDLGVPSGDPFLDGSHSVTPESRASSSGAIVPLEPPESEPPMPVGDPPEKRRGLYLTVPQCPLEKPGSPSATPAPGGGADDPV
# Chain of UniProt Q9EQ60 (Q9EQ60 whole entry): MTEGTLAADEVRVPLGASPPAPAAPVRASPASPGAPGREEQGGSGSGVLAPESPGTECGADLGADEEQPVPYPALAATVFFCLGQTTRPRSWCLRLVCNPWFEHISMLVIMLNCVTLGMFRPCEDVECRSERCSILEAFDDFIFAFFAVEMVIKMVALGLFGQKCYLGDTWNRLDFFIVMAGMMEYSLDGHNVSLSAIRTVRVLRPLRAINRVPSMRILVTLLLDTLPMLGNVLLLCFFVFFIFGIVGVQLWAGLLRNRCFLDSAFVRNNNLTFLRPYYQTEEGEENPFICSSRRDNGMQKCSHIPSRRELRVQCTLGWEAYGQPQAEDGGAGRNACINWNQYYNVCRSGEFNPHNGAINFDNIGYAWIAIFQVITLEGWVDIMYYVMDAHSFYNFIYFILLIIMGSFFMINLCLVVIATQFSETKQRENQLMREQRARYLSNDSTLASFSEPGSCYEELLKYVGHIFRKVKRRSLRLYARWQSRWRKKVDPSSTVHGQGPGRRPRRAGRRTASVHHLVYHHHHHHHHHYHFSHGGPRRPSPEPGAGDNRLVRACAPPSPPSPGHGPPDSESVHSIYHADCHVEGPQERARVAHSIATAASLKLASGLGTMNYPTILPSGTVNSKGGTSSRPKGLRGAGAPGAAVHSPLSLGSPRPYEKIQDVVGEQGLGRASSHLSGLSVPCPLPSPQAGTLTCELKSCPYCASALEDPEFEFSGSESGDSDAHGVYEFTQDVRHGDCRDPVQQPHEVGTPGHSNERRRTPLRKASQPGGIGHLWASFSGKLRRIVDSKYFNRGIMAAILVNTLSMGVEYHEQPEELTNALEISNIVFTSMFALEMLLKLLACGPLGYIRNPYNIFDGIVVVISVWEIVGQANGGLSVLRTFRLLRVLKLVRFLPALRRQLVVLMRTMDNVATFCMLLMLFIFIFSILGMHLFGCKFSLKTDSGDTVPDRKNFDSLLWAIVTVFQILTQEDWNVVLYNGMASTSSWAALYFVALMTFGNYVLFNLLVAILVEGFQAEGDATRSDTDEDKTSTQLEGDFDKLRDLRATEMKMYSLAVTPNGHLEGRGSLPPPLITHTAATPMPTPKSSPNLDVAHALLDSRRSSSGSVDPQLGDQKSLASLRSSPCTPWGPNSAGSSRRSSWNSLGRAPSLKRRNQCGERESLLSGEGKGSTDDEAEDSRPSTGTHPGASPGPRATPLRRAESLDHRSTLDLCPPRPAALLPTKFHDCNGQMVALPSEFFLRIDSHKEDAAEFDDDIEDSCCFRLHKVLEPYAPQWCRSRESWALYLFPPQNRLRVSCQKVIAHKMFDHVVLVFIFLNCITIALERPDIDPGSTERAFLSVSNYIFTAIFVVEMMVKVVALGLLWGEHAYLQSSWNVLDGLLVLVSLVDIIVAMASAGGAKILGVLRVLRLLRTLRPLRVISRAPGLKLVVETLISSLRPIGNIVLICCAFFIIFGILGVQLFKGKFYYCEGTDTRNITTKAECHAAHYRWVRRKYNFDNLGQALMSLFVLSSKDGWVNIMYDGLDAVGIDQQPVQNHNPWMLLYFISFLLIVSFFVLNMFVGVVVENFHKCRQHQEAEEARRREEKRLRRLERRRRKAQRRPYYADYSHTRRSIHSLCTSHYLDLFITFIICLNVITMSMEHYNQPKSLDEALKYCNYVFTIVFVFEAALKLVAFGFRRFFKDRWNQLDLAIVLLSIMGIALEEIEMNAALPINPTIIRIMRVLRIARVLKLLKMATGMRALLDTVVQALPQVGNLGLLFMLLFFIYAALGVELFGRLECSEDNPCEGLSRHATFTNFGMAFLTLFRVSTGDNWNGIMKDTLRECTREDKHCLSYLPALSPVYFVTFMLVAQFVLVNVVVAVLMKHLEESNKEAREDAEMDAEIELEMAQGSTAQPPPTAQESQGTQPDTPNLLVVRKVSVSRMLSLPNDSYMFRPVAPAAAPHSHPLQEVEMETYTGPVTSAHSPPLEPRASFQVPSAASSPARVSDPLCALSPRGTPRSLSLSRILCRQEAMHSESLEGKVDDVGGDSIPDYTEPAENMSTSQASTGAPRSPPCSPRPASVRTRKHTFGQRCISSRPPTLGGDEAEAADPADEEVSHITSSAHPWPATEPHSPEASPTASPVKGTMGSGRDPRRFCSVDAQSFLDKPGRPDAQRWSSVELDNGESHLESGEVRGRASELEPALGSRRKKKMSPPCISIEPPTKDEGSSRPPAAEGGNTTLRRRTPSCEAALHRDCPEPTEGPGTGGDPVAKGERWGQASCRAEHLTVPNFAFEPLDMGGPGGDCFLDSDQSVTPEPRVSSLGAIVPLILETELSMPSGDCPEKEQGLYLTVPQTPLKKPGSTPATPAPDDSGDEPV
Binder,"inhibition of peak LVA ICa (pA/pF), dissociated rat DRG neurons after AAV6 injection (rat Cav3.2 (rat))","Activation curves (G/Gmax), V½ [1]","Inactivation curves (I/Imax), V½ [1]","Peak T-type calcium currents, HEK3.2 cells (second institution) [1]","reduction of peak Cav3.2 current density (ICa3.2), whole-cell voltage-clamp, HEK3.2 cells [1]","enhancement of peak LVA ICa, dissociated rat DRG neurons after AAV6 injection (rat Cav3.2 (rat))"
"{EGFP}-GLRSRAQASNSAVDGTAGPGSRRSSWNSLGRAPSLKRR (designed binder, not shown: large carriers) [GFP3.2iPA1]",70%,-56.1 mV,-69.8 mV,20.2 pA/pF,70%,
"GLRSRAQASNSAVDGTAGPGSPAAPVRASPASPGAPGREEQ (designed binder, not shown: large carriers) [GFP3.2NP]",,-54.1 mV,-64.9 mV,41.1 pA/pF,,

# Second part, the binder after the results:
"inhibition of peak LVA ICa (pA/pF), dissociated rat DRG neurons after AAV6 injection (rat Cav3.2 (rat))","Activation curves (G/Gmax), V½ [1]","Inactivation curves (I/Imax), V½ [1]","Peak T-type calcium currents, HEK3.2 cells (second institution) [1]","reduction of peak Cav3.2 current density (ICa3.2), whole-cell voltage-clamp, HEK3.2 cells [1]","enhancement of peak LVA ICa, dissociated rat DRG neurons after AAV6 injection (rat Cav3.2 (rat))",Binder
60%,-54.6 mV,-68.8 mV,11.8 pA/pF,60%,,"{EGFP}-GLRSRAQASNSAVDGTAGPGSRRREEKRLRRLERRRRKAQRRP (designed binder, not shown: large carriers) [GFP3.2iPA2]"
,,,,40%,,"{EGFP}-GLRSRAQASNSAVDGTAGPGSRGRASELEPALGSRRKKKMSPP (designed binder, not shown: large carriers) [GFP3.2iPA4]"
,,,,,30%,"{EGFP}-GLRSRAQASNSAVDGTAGPGSKRRSLRLYARWQSRWRKK (designed binder, not shown: large carriers) [GFP3.2iPA3]"
